Patent publication US20250034271A1 (EUCURE BEIJING BIOPHARMA, published 2025)

Assays:
[1] = target: T1, mouse CD40 (mCD40) on transfected CHO cells (mouse, UniProt P27512 20-289); assay: flow cytometry, CHO-mCD40 cells, anti-mIgG Fc-FITC
T1 sequence: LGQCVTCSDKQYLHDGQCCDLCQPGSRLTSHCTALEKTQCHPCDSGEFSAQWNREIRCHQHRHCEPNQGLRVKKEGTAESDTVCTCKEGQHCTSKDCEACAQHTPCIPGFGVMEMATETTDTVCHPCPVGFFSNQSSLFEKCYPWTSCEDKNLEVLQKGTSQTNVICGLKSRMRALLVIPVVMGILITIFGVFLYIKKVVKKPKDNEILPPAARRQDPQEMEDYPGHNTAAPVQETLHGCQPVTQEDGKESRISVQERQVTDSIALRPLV
Method: (§1) 25 μl CHO cells were added to each well. 25 μl purified anti-hCD40 antibodies (1 μg/ml) (7F10, 6A7, or 4H6) were added to each well and were incubated at 4° C. for 30 minutes.
(§2) After being washed with PBS (1200 rmp, 5 min) twice, 50 μl of FITC labeled anti-mouse IgG Fc antibody (anti-mIgG Fc-FITC) was added into each well 1:100 dilution, followed by incubated at 4° C. for 30 minutes, and then PBS wash (1200 rmp, 5 min). The signals for FITC were detected by flow cytometry.

[2] = target: T2, chimeric (mouse and human) CD40 (chiCD40) on transfected CHO cells (chimeric (mouse and human)); assay: flow cytometry, CHO-chiCD40 cells, antibody 1 µg/ml, anti-mIgG Fc-FITC; x: Anti-mouse-IgG-Fc-FITC, y: SSC-H
T2 construct: also called human-mouse chimeric CD40; chimeric CD40
Method: as §1, §2

[3] = target: T1, mouse CD40 (mCD40) on transfected CHO …; assay: flow cytometry, CHO-mCD40 cells, antibody 1 µg/ml, anti-mIgG Fc-FITC; x: Anti-mouse-IgG-Fc-FITC, y: SSC-H
Method: as §1, §2

[4] = target: T3, human CD40 (hCD40) on transiently transfected CHO cells (human, UniProt P25942 21-277); assay: flow cytometry, CHO cells with hCD40, antibody titrated then hCD40L-hFc added (blocked ligand: hCD40L-hFc); y: hCD40 Ligand-hFc, x: Anti-mouse-IgG-Fc-PE
T3 construct: also called TNF Receptor Superfamily Member 5; TNFRSF5
Method: The anti-hCD40 antibodies were collected from mouse ascites fluid and purified by chromatography. 25 μl CHO cells transiently transfected with human CD40 were added to each well in a plate. The purified antibodies were titrated to final concentrations of 50, 5, 0.5, 0.05, and 0.005 μg/ml. The titrated antibodies were added to each well at 25 μl per well at 4° C. and incubated for 30 minutes.
hCD40 ligand-hFc was expressed by H293T cells. 50 μl of hCD40L-hFc was added to each well (1:500). The cells with hCD40L-hFc and the antibodies were incubated at 4° C. for 15 minutes.
After being washed with phosphate-buffered saline (PBS) twice, 50 μl of PE labeled anti-mouse IgG Fc antibody (anti-mIgG Fc-PE) at 1:500 dilution and FITC-labeled anti-human IgG Fc antibody (anti-hIgG Fc-FITC) at 1:100 dilution were added into each well, and incubated for 30 minutes at 4° C., followed by PBS wash. The signals for FITC and PE were determined by flow cytometry.

[5] = target: T4, monkey (rhesus macaque) CD40 (rmCD40) on transfected CHO cells (rhesus macaque, UniProt P25942 21-277 (human entry)); assay: flow cytometry, CHO-rmCD40 cells, antibody 1 µg/ml, anti-mIgG Fc-FITC; x: Anti-mouse-IgG-Fc-FITC, y: SSC-H
T4 construct: also called monkey CD40
T4 chain: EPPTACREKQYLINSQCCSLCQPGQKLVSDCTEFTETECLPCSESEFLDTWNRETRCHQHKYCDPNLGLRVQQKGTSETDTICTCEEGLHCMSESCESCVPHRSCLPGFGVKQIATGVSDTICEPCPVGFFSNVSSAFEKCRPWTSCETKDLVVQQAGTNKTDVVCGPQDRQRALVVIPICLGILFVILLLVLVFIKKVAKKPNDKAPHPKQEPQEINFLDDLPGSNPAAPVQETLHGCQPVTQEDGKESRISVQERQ
Method: as §1, §2

B1: mouse anti-hCD40 antibody 03-7F10 (antibody, V domains shown)
VH: EVKLVESGGGLVQPGGSLKLSCATSGFTFSDYYMYWVRQTPEKRLEWVAYISYGGDSTFYPDTVRGRFTISRDNAKNALYLQMSRLKSEDTAVYYCARPAPSAHSYYLDYWGQGTTLTVSS
VL: DIQMTQTTSSLSASLGDRVTISCRASQDISNYLNWYQQKPDGTVKLLIYYTSRLHSGLPSRFSGSGSGTDYSLTISNLEQEDIATYYCQQGKTLPFTFASGTKLEIK
notes: Mouse antibody purified from ascites
For B1, the binding result [1] was “no binding”, the “% cells in the Anti-mouse-IgG-Fc-FITC positive gate” value [2] was 82.4% and the “% cells in the Anti-mouse-IgG-Fc-FITC positive gate” value [3] was 0.674%. The “% cells lower left (ligand- / antibody-) at 0.005µg/mL” value [4] was 42.7%, the “% cells lower left (ligand- / antibody-) at 0.05µg/mL” value [4] was 9.95% and the “% cells lower left (ligand- / antibody-) at 0.5µg/mL” value [4] was 7.02%. The “% cells lower left (ligand- / antibody-) at 5µg/mL” value [4] was 12.9%, the “% cells lower left (ligand- / antibody-) at 50µg/mL” value [4] was 12.8% and the “% cells lower right (ligand- / antibody+) at 0.005µg/mL” value [4] was 1.99%. For the same binder, the “% cells lower right (ligand- / antibody+) at 0.05µg/mL” value [4] was 32.1%, the “% cells lower right (ligand- / antibody+) at 0.5µg/mL” value [4] was 47.7% and the “% cells lower right (ligand- / antibody+) at 5µg/mL” value [4] was 78.8%. The “% cells lower right (ligand- / antibody+) at 50µg/mL” value [4] was 78.1%, the “% cells upper left (ligand+ / antibody-) at 0.005µg/mL” value [4] was 4.03% and the “% cells upper left (ligand+ / antibody-) at 0.05µg/mL” value [4] was 0%. The “% cells upper left (ligand+ / antibody-) at 0.5µg/mL” value [4] was 0.056%, the “% cells upper left (ligand+ / antibody-) at 5µg/mL” value [4] was 0% and the “% cells upper left (ligand+ / antibody-) at 50µg/mL” value [4] was 0%. The “% cells upper right (ligand+ / antibody+) at 0.005µg/mL” value [4] was 51.3%, the “% cells upper right (ligand+ / antibody+) at 0.05µg/mL” value [4] was 57.9% and the “% cells upper right (ligand+ / antibody+) at 0.5µg/mL” value [4] was 45.2%. The “% cells upper right (ligand+ / antibody+) at 5µg/mL” value [4] was 8.35%, the “% cells upper right (ligand+ / antibody+) at 50µg/mL” value [4] was 9.09% and the “% cells in the Anti-mouse-IgG-Fc-FITC positive gate” value [5] was 82.6%.
